Measurements: PMC4351820

Biological target: hSSB1 (SSB1, single-stranded DNA binding protein 1) (human, UniProt Q9BQ15 1-211)
Assay: EMSA

Chain of hSSB1 (SSB1, single-stranded DNA binding protein 1) (Q9BQ15 whole entry): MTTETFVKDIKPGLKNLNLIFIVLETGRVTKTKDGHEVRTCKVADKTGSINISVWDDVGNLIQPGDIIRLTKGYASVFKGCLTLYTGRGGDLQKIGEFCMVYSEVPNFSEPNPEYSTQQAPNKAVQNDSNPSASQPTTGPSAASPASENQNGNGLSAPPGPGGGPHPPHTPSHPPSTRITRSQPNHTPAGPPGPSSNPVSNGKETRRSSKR

TTAGGGTTAGGGTTAGGGTTAGGGTTAGGG (ssDNA) [G-rich telomeric strand (TTAGGG)5]: binds.
